The term stoichiometry N denotes the number of molecules, sites or subunits per partner or assembly.

Where a chain is given by its changes, count along the chain named. Names may count otherwise.

The series deals with the molecule itself. The experiment in a line: SEC; preparative isolation of the tetramer after Factor Xa cleavage; Superdex HiLoad 16/600 200, 20 mM Hepes pH 7, 200 mM NaCl. (In general: SEC sorts molecules by how far they enter the pores of the column.)

B1: Recombinant human WT-PAH (phenylalanine hydroxylase) (enzyme, UniProt P00439 1-452, looked up)
chain: MSTAVLENPGLGRKLSDFGQETSYIEDNCNQNGAISLIFSLKEEVGALAKVLRLFEENDVNLTHIESRPSRLKKDEYEFFTHLDKRSLPALTNIIKILRHDIGATVHELSRDKKKDTVPWFPRTIQELDRFANQILSYGAELDADHPGFKDPVYRARRKQFADIAYNYRHGQPIPRVEYMEEEKKTWGTVFKTLKSLYKTHACYEYNHIFPLLEKYCGFHEDNIPQLEDVSQFLQTCTGFRLRPVAGLLSSRDFLGGLAFRVFHCTQYIRHGSKPMYTPEPDICHELLGHVPLFSDRSFAQFSQEIGLASLGAPDEYIEKLATIYWFTVEFGLCKQGDSIKAYGAGLLSSFGELQYCLSEKPKLLPLELEKTAIQNYTVTEFQPLYYVAESFNDAKEKVRNFAATIPRPFSVRYDPYTQRIEVLDNTQQLKILADSINSEIGILCSALQKIK
notes: phenylalanine hydroxylase, human, expressed from pMAL as MBP-(pep)xa-PAH and cleaved with Factor Xa; source: E. coli TB1, purified (amylose resin, Factor Xa cleavage, SEC); not shown: MBP, N-terminal, cleaved
With B1, the “stoichiometry N” value was 4.

B2: Recombinant human p.R261Q-PAH (phenylalanine hydroxylase, p.Arg261Gln variant) (enzyme, UniProt P00439 1-452, looked up)
chain: B1 chain with R261Q
notes: phenylalanine hydroxylase, human, PKU patient variant p.R261Q, expressed from pMAL as MBP-(pep)xa-PAH and cleaved with Factor Xa; Variant that occurs in PKU patients (c.782G>A); also called p.PAH-R261Q; source: E. coli TB1, purified (amylose resin, Factor Xa cleavage, SEC); not shown: MBP, N-terminal, cleaved
B2: the “stoichiometry N” value came to 4.

Source of the values: article PMC8024259, “The Pah-R261Q mouse reveals oxidative stress associated with amyloid-like hepatic aggregation of mutant phenylalanine hydroxylase” (Nature Communications, 2021).
